Results as given in patent publication US20220049019A1.

Columns and labels:
[1] = biological target: FcγRIIb receptor (UniProt P31994); test: competitive TR-FRET
[2] = biological target: FcγRIIa (UniProt P12318); test: competitive TR-FRET
[3] = biological target: FcγRIIIa (UniProt P08637); test: competitive TR-FRET
[4] = biological target: FcγRIIb receptor (UniProt P31994); test: cell based competitive TR-FRET (CisBio); displacement of a fluorescently labeled antibody from the cell surface receptor

Construct 4-FcγRIIb+ mutant (from UniProt P01857 27-328; P0DOX5 223-448)
EC50 [1]: 0.0165 nM | EC50 [2]: 0.126 nM | EC50 [3]: 26.7 nM | fold increase in binding against the Construct 4 (SIF3) control [4]: > 300 fold
